Results: doi:10.1101/2021.10.24.465637

Experiments:
[1] = target: SGHRT-FLAG (human SGHRT, C-terminal FLAG) (human); experiment: SDS-PAGE and Western blot
[2] = target: SGHRT-HA (human SGHRT, C-terminal HA) (human); experiment: SDS-PAGE and Western blot

Row | stoichiometry N [1] | stoichiometry N [2] | Substance
1 | 2 |  | SGHRT-FLAG (human SGHRT, C-terminal FLAG) (peptide)
2 |  | 2 | SGHRT-HA (human SGHRT, C-terminal HA) (peptide)
